Substitutions are numbered along the chain they refer to. Where two headings read alike, the source gives them in different places.
T1: membrane-bound human BCMA (human, UniProt Q02223 1-184)
T1 sequence (looked up): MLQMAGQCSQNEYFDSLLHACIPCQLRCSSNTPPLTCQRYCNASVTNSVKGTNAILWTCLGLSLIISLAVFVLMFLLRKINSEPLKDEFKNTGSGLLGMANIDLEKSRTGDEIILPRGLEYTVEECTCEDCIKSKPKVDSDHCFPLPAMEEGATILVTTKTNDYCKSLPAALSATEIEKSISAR

T2: soluble BCMA (sBCMA) in conditioned media collected from Ad293 cells expressing human BCMA (human, UniProt Q02223 1-54)
T2 sequence (looked up): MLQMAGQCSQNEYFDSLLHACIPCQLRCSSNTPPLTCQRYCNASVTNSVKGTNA

B1: 15B2GL-SG3249 antibody-drug conjugate (antibody, V domains shown)
VH: EVQLVESGGGLVKPGGSLRLSCAASGFTFRSYSMNWVRQAPGKGLEWVSSISGSSNYIYYADSVKGRFTISRDNAKNSLYLQMNSLRAEDTAVYYCARGGNYYVEYFQYWGQGTLVTVSS
VL: EIVLTQSPGTLSLSPGERATLSCRASQYISSNYLAWYQQKPGQAPRLLIYGASNRATGIPDRFSGSGSGTDFTLTISRLEPEDFAVYYCQQYGSSPITFGQGTKLEIK
modifications: PBD payload SG3249 conjugated site-specifically; residue not stated; DAR 1.82
B2: I09-SG3249 antibody-drug conjugate (antibody, V domains shown)
VH: B1 VH with R30S, Y103F, Y109Q
VL: B1 VL with G93S, S95D
modifications: PBD payload SG3249 conjugated site-specifically; residue not stated; DAR 1.82
B3: J6M0-SG3249 antibody-drug conjugate (antibody, INN chains, looked up, V domains shown)
VH: QVQLVQSGAEVKKPGSSVKVSCKASGGTFSNYWMHWVRQAPGQGLEWMGATYRGHSDTYYNQKFKGRVTITADKSTSTAYMELSSLRSEDTAVYYCARGAIYDGYDVLDNWGQGTLVTVSS
VL: DIQMTQSPSSLSASVGDRVTITCSASQDISNYLNWYQQKPGKAPKLLIYYTSNLHSGVPSRFSGSGSGTDFTLTISSLQPEDFATYYCQQYRKLPWTFGQGTKLEIK
modifications: SG3249 (tesirine) drug payload
B4: J6M0-mc-MMAF antibody-drug conjugate (antibody, INN chains, looked up, V domains shown)
VH: B3 VH
VL: B3 VL
modifications: mc-MMAF drug payload

Columns and labels:
Assay in all cases: cell-based or functional assay
[1] = target: T1, membrane-bound human BCMA
[2] = target: T2, soluble BCMA (sBCMA) in conditioned …
[3] = target: T1, membrane-bound human BCMA; remark: listed apart in the source
[4] = target: T1, membrane-bound human BCMA; remark: listed apart in the source
[5] = target: soluble BCMA (sBCMA) in conditioned media collected from Ad293 cells expressing human BCMA (human) (UniProt Q02223)

Binder | Fold loss of potency, killing of MM.1S cells with 0 ng/mL sBCMA (reference) [2] | Fold loss of potency, killing of MM.1S cells with 75 ng/mL sBCMA [2] | Fold loss of potency, killing of MM.1S cells with 270 ng/mL sBCMA [2] | Fold loss of potency, killing of MM.1S cells with 720 ng/mL sBCMA [2] | IC50 (ng/mL) of killing of MM.1S cells with 0 ng/mL sBCMA [3] | IC50 (ng/mL) of killing of MM.1S cells with 75 ng/mL sBCMA [3] | IC50 (ng/mL) of killing of MM.1S cells with 270 ng/mL sBCMA [3] | IC50 (ng/mL) of killing of MM.1S cells with 720 ng/mL sBCMA [3] | IC50 (ng/mL) of killing of MM.1S cells with 0 ng/mL sBCMA [4] | IC50 (ng/mL) of killing of MM.1S cells with 75 ng/mL sBCMA [4] | IC50 (ng/mL) of killing of MM.1S cells with 270 ng/mL sBCMA [4] | IC50 (ng/mL) of killing of MM.1S cells with 720 ng/mL sBCMA [4] | Fold loss of potency, killing of MM.1S cells with 0 ng/mL sBCMA (reference) [5] | Fold loss of potency, killing of MM.1S cells with 75 ng/mL sBCMA [5] | Fold loss of potency, killing of MM.1S cells with 270 ng/mL sBCMA [5] | Fold loss of potency, killing of MM.1S cells with 720 ng/mL sBCMA [5] | also measured
B1 | 1 fold | 1.11 fold | 1.58 fold | 2.01 fold | 14.5 ng/mL | 16.1 ng/mL | 22.9 ng/mL | 29.1 ng/mL | – | – | – | – | – | – | – | – | IC50 (ng/mL), in vitro cytotoxicity (CellTiter-Glo, 96 h), EJM cells [1]: 153 ng/mL; IC50 (ng/mL), in vitro cytotoxicity (CellTiter-Glo, 96 h), JJN-3 cells [1]: 36.3 ng/mL; IC50 (ng/mL), in vitro cytotoxicity (CellTiter-Glo, 96 h), L-363 cells [1]: 31.4 ng/mL; IC50 (ng/mL), in vitro cytotoxicity (CellTiter-Glo, 96 h), MM.1R cells [1]: 8.64 ng/mL; IC50 (ng/mL), in vitro cytotoxicity (CellTiter-Glo, 96 h), MM.1S cells [1]: 26.8 ng/mL; IC50 (ng/mL), in vitro cytotoxicity (CellTiter-Glo, 96 h), NCI-H929 cells [1]: 5.99 ng/mL; IC50 (ng/mL), in vitro cytotoxicity (CellTiter-Glo, 96 h), OPM-2 cells [1]: 201 ng/mL; IC50 (ng/mL), in vitro cytotoxicity (CellTiter-Glo, 96 h), U266B1 cells [1]: 39.7 ng/mL
B2 | 1 fold | 1.35 fold | 1.98 fold | 5.75 fold | 2.81 ng/mL | 3.79 ng/mL | 5.55 ng/mL | 16.2 ng/mL | – | – | – | – | – | – | – | – | –
B3 | – | – | – | – | – | – | – | – | 4.82 ng/mL | 12.8 ng/mL | 32.3 ng/mL | 92.9 ng/mL | 1 fold | 2.66 fold | 6.7 fold | 19.3 fold | –
B4 | – | – | – | – | – | – | – | – | 29.3 ng/mL | 55.5 ng/mL | 160 ng/mL | 1460 ng/mL | 1 fold | 1.9 fold | 5.45 fold | 49.8 fold | –

From US20210214460A1 (AstraZeneca / MedImmune, published 2021)
